Results from patent US20130004432A1 (INSTITUT NATIONAL DE LA SANTE ET DE LA RECHERCHE MEDICALE, published 2013).

Target: T1, human B7H6 (human, UniProt Q68D85 25-454)
T1 construct: in the immunoblot and immunoprecipitation experiments it stood in cell lysates; residues 1-24 are not expressly called a signal peptide; also called P815.B7H6; P815.B7-H6
T1 sequence: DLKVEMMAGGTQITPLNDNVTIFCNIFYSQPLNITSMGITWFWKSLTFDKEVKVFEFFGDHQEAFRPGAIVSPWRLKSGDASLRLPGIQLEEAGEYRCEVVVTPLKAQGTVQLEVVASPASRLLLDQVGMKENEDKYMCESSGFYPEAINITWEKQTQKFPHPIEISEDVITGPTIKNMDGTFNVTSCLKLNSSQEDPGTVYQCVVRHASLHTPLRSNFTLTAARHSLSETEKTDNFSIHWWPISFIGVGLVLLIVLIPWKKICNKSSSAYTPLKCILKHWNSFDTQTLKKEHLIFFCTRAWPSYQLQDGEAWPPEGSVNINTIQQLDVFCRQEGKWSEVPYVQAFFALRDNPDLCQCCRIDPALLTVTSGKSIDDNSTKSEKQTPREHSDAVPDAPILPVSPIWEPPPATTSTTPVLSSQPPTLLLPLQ
Experiment: FACS on P815.B7-H6 cells

- binding result: binds
B1: NKp30Fc, soluble form of human NKp30 consisting of the extracellular domain of human NKp30 with a C-terminal Fc fusion (Fc fusion, UniProt O14931 19-135, looked up)
chain: LWVSQPPEIRTLEGSSAFLPCSFNASQGRLAIGSVTWFRDEVVPGKEVRNGTPEFRGRLAPLASSRFLHDHQAELHIRDVRGHDASIYVCRVEVLGLGVGTGNGTRLVVEKEHPQLG
notes: extracellular domain; not shown: C-terminal Fc
